According to patent US20100092409A1 (DANISCO US, published 2010):
Where a chain is given by its changes, count along the chain named. Numbers in names are those of the source.

How the values were obtained:
[1] = target: T1, vascular endothelial growth factor (VEGF) (UniProt P15692-4 27-191, limits assumed, labeled with biotin for the BioVeris assay (sites not given)); test: BioVeris ECL competition with a labeled competitor; grade ++ = apparent IC50 about 10-50 µM
Experimental: (§1) The resulting vectors were used to transform B. subtilis BG6006 host cells. Cultures were grown in 500 ml of MBD medium and the BBI species were purified essentially as described above and by Vogtentanz et al., 2007 (Protein Expr Purif 55:40-52 [2007]). BioVeris binding assays were performed essentially as outlined in Example 5 and by the manufacturer. Binding of the modified variant BBIs to their respective target proteins was measured using a BioVeris® binding assay, which is a competition assay that determines the binding of the modified variant BBIs to its target protein (e.g. VEGF, FGF5, TGFβ and TNFα) in the presence or absence of a labeled competitor. The competitor can be a labeled monoclonal antibody raised against the target protein or a labeled native receptor of the target protein. The electrochemiluminescent binding assays were performed essentially as described in Example 5. The apparent IC50s were determined from binding data by determining the concentration of the BBI species needed to reduce the BioVeris signal by one half. BBI scaffolds without the target binding peptide in the chymotrypsin inhibitory loop were used as negative controls.

[2] = target: T2, tumor necrosis factor α (TNFα) (UniProt P01375 77-233); test: as above
T2 sequence (P01375 77-233 limits assumed): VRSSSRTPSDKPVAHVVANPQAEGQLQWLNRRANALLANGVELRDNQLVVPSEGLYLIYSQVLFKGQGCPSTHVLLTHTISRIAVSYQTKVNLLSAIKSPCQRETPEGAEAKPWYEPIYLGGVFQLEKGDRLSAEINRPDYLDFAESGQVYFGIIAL
Experimental: as §1

[3] = target: T2, tumor necrosis factor α (TNFα); test: BioVeris ECL competition with a labeled competitor; grade + = apparent IC50 about 50-250 µM
Experimental: as §1

[4] = target: T1, vascular endothelial growth factor …; test: BioVeris ECL competition with a labeled competitor; grade +++ = apparent IC50 about 2-10 µM
Experimental: as §1

[5] = target: T2, tumor necrosis factor α (TNFα); test: BioVeris ECL competition with a labeled competitor; negative control for TNFα binding
Experimental: as §1

[6] = target: T3, transforming growth factor β1 (TGFβ1) (UniProt P01137 279-390); test: BioVeris ECL competition with a labeled competitor; grade ++ = apparent IC50 about 10-50 µM
T3 sequence (P01137 279-390 limits assumed): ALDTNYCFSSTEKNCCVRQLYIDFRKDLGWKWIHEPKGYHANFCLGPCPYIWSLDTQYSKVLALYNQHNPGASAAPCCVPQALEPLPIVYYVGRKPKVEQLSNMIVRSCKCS
Experimental: as §1

[7] = target: T4, fibroblast growth factor 5 (FGF-5) (UniProt P12034 21-268, limits assumed); test: BioVeris ECL competition with a labeled competitor; negative control for FGF-5 binding
T4 sequence (looked up): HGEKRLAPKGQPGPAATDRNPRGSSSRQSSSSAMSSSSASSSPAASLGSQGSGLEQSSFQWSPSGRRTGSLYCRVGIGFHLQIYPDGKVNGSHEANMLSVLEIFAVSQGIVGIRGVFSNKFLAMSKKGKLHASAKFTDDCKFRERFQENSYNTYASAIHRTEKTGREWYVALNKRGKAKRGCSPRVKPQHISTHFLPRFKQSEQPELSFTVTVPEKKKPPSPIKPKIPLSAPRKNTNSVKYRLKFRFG
Experimental: as §1

[8] = target: T1, vascular endothelial growth factor …; test: BioVeris ECL competition with a labeled competitor; negative control for VEGF binding
Experimental: as §1

[9] = target: T3, transforming growth factor β1 (TGFβ1); test: BioVeris ECL competition with a labeled competitor; negative control for TGFβ binding
Experimental: as §1

[10] = target: T4, fibroblast growth factor 5 (FGF-5); test: BioVeris ECL competition with a labeled competitor; grade ++ = apparent IC50 about 10-50 µM
Experimental: as §1

T1 sequence (P15692 other isoform, or with tags, fused parts or gaps limits assumed): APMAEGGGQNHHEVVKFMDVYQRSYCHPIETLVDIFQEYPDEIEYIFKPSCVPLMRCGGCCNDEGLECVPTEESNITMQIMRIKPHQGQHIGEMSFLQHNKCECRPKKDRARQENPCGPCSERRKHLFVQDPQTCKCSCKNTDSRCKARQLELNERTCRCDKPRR

B1: BBIt-VEGF-V5-A13I-S25R-M27A-L29P-S31A-F50K-V52T (designed binder)
chain: DPDDESSKPCCDQCICTKSNPPQCRCRDARPNACHSACKSCACKPSSASSCKCTDITDFCYEPCKPSE
notes: also called BBIt-AV-V5
Q: B1 was tested. Which IC50 [1] did it give?
A: 10 to 50 µM

B2: BBIt-TNFα-T1-A13I-S25R-M27A-L29P-S31A-F50K-V52T (designed binder)
chain: B1 chain with K44R, P45Y, S46W, S47Q, A48D, S49I, S50P
notes: also called BBIt-TNF-T1
Q: How did the IC50 [2] turn out when B2 was run?
A: 10 to 50 µM

B3: BBIt-TNFα-T2-A13I-S25R-M27A-L29P-S31A-F50K-V52T (designed binder)
chain: B1 chain with K44A, S46E, S47P, A48I, S49L, S50A
notes: also called BBIt-TNF-T2
Q: How did the IC50 [3] turn out when B3 was run?
A: 50 to 250 µM

B4: BBIt-TNFα-T3-A13I-S25R-M27A-L29P-S31A-F50K-V52T (designed binder)
chain: B1 chain with K44D, P45M, S46I, S47M, A48V, S50I
notes: also called BBIt-TNF-T3
Q: B4 was tested. Which IC50 [3] did it give?
A: 50 to 250 µM

B5: BBIt-VEGF-V2-A13I-S25R-M27A-L29P-S31A-F50K-V52T (designed binder)
chain: B1 chain with P45T, S46N, S47P, A48S, S49G
notes: also called BBIt-AV-V2
Q: B5 was tested. Which IC50 [4] did it give?
A: 2 to 10 µM

B6: BBIt-VEGF-V4-A13I-S25R-M27A-L29P-S31A-F50K-V52T (designed binder)
chain: B1 chain with P45H, S47A, A48K, S49A, S50E
notes: also called BBIt-AV-V4
Q: For B6, which IC50 [4] is on record?
A: 2 to 10 µM

B7: BBIt-VEGF-V6-A13I-S25R-M27A-L29P-S31A-F50K-V52T (designed binder)
chain: B1 chain with K44P, P45V, S46T, S47K, A48R, S49V, S50H
notes: also called BBIt-AV-V6
Q: For B7, which IC50 [1] is on record?
A: 10 to 50 µM

B8: BBIt-VEGF-V3-A13I-S25R-M27A-L29P-S31A-F50K-V52T (designed binder)
chain: B1 chain with K44R, S46T, S47G, A48H, S50L
notes: also called BBIt-AV-V3
Q: For B8, which IC50 [1] is on record?
A: 10 to 50 µM

B9: BBIt-VEGF-V1-A13I-S25R-M27A-L29P-S31A-F50K-V52T (designed binder)
chain: B1 chain with K44S, P45K, S46H, A48Q, S49I, S50T
notes: also called BBIt-AV-V1
Q: Which results are given for B9?
A: IC50 [1]: 10 to 50 µM; IC50 [5]: > 250 µM

B10: PEN3-Q-BBIt-TGFβ1 (designed binder)
chain: DPDDESSKPCCDQCICTKSNPPQCRCSDMRPNSCHSACKSCACPENINVLPCTCADITDFCYEPCKPSE
notes: also called BBIt-PEN3-Q-A13I-L29P-F50T-V52A
Q: With B10 as the binder, how does the IC50 [6] read?
A: 10 to 50 µM

B11: BBIt-VEGKD-A13I-S25K-L29P-V52K (designed binder)
chain: DPDDESSKPCCDQCICTKSNPPQCRCKDMRPNSCHSACKSCICKYDLYWWCFCKDITDFCYEPCKPSE
notes: also called VegKD-Q
Q: Which IC50 [4] does the source give for B11 here?
A: 2 to 10 µM

B12: soybean Bowman-Birk Inhibitor (BBI), wild type (other)
chain: DDESSKPCCDQCACTKSNPPQCRCSDMRLNSCHSACKSCICALSYPAQCFCVDITDFCYEPCKPSEDDKEN
notes: Used as the negative control; also called sBBI; BBI-WT
Q: Which IC50 [7] does the source give for B12 here?
A: > 250 µM

Q: What about the IC50 [8] of the same binder?
A: > 250 µM

B13: BBtc-AV (Torresea cearensis Bowman Birk Inhibitor with CK37281 in the second protease inhibitory loop) (designed binder)
chain: DPSSKWEACCDRCACTKSIPPQCHCADIRLNSCHSACESCACYNLYGWTCRCFDITDFCYKPCSG
notes: also called BBItc-AV
Q: How did the IC50 [4] turn out when B13 was run?
A: 2 to 10 µM

B14: BBIt-AV (truncated BBI-AV, unmodified variant) (designed binder)
chain: DDESSKPCCDQCACTKSNPPQCRCSDMRLNSCHSACKSCACYNLYGWTCFCVDITDFCYEPCKPSE
notes: also called CT
Q: B14 was tested. Which IC50 [4] did it give?
A: 2 to 10 µM

B15: BBdb-AV (Dolichos biflorus Bowman Birk Inhibitor with CK37281 in the second protease inhibitory loop) (designed binder)
chain: DPSESSKPCCDQCACTKSIPPQCRCTDVRLNSCHSACSSCACYNLYGWTCVCVDMKDFCYEPCK
notes: also called BBIdb-AV
Q: For B15, which IC50 [4] is on record?
A: 2 to 10 µM

B16: BBIt-AV-A13I-L29P-A40K-F50T-V52A (designed binder)
chain: DPDDESSKPCCDQCICTKSNPPQCRCSDMRPNSCHSACKSCKCYNLYGWTCTCADITDFCYEPCKPSE
notes: also called TA5; quintuple variant
Q: With B16 as the binder, how does the IC50 [4] read?
A: 2 to 10 µM

B17: MM021W-Q-BBIt-TGFβ1 (designed binder)
chain: B16 chain with K42A, Y44K, N45H, L46N, Y47V, G48D, T50L
notes: also called BBIt-MM021W-Q-A13I-L29P-F50T-V52A
Q: Which IC50 [6] does the source give for B17 here?
A: 10 to 50 µM

B18: WTQ-Q-BBIt-TGFβ1 (designed binder)
chain: B16 chain with K42A, Y44W, N45T, L46Q, Y47H, G48I, W49H, T50N
notes: also called WTQ-BBIt-Q-TGF; BBIt-WTQ-Q-A13I-L29P-F50T-V52A
Q: With B18 as the binder, how does the IC50 [6] read?
A: 10 to 50 µM

B19: FGFps2-Q-BBIt-FGF-5 (designed binder)
chain: B16 chain with K42A, Y44T, N45W, L46I, Y47D, G48S, W49T, T50P
notes: also called BBIt-FGFps2-Q-A13I-L29P-F50T-V52A
Q: What does the source list for B19?
A: IC50 [9]: > 250 µM; IC50 [10]: 10 to 50 µM

B20: MM007-Q-BBIt-FGF-5 (designed binder)
chain: B16 chain with K42A, Y44R, N45T, L46Q, Y47P, G48Y, W49P, T50L
notes: also called BBIt-MM007-Q-A13I-L29P-F50T-V52A
Q: With B20 as the binder, how does the IC50 [10] read?
A: 10 to 50 µM

B21: BBIt-AV-A13I-S25K-M27A-L29R-S31E-A40K-F50Q-V52Q (designed binder)
chain: B16 chain with S27K, M29A, P31R, S33E, T52Q, A54Q
notes: also called QQ8
Q: With B21 as the binder, how does the IC50 [4] read?
A: 2 to 10 µM

B22: BBIt-AV-A13I-S25R-M27A-L29P-S31A-A40H-F50K-V52T (designed binder)
chain: B16 chain with S27R, M29A, S33A, K42H, T52K, A54T
notes: also called KT8
Q: How did the IC50 [4] turn out when B22 was run?
A: 2 to 10 µM

B23: BBIt-AV-A13I-S25K-M27A-L29R-S31A-A40H-F50R-V52L (designed binder)
chain: B16 chain with S27K, M29A, P31R, S33A, K42H, T52R, A54L
notes: also called RL8
Q: Which IC50 [4] does the source give for B23 here?
A: 2 to 10 µM

B24: BBIt-AV-A13I-A40K-F50T-V52A (designed binder)
chain: B16 chain with P31L
Q: With B24 as the binder, how does the IC50 [4] read?
A: 2 to 10 µM
